For orientation: EC50 means the midpoint of the concentration-response curve. Higher therefore signals a need for much substance. For orientation: Kd means the concentration at which binding is half-saturated.

For assay [1], the target named is T1, T-cell receptor with TRBV19 (Vβ17) beta chain on human T cells (human).
T1 construct: whole, on cells; also called Vb17; TRBV19+ T cells
The assay is described as follows: flow cytometry, % TRBV19+ T cells of live human pan-T cells, 1 hour at 37 C. A general note: In flow cytometry, cells or beads pass a laser one at a time.

Assay [2] concerns the target T2, human EMR2 (ADGRE2, CD312) on cells (human, UniProt Q9UHX3 24-823).
T2 construct: also called huEMR2 full length; Adhesion G protein-coupled receptor E2
T2 sequence: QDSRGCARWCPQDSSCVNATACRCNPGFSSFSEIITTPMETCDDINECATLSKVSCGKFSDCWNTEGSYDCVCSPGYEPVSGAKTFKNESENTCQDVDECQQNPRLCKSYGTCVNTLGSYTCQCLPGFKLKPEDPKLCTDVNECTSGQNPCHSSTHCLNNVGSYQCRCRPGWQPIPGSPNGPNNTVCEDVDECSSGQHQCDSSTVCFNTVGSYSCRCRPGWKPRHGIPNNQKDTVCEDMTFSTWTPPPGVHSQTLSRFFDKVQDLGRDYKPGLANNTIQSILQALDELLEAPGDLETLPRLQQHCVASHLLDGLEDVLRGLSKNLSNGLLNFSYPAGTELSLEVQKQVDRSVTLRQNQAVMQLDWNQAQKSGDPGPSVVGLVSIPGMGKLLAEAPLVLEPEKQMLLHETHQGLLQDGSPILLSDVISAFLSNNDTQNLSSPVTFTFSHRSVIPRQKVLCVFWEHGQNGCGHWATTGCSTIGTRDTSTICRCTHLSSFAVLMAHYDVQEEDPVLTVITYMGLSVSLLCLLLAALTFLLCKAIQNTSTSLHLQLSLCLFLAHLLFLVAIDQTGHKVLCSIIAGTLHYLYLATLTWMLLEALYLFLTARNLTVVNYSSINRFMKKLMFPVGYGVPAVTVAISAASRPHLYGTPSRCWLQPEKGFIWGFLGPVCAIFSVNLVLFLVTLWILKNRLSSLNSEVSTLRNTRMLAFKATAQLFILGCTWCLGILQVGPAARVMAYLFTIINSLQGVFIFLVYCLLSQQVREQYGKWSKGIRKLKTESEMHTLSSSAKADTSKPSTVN
The assay is described as follows: flow cytometry, median AF647 of live cells, OCI-AML5 WT cells, 1 hour at 37 C.

Assay [3] deals with T2, human EMR2 (ADGRE2, CD312) on cells. The assay is described as follows: flow cytometry, median AF647 of live cells, MOLM 13 cells, 1 hour at 37 C.
Assay [4] concerns the target T3, EMR2W4, huEMR2 GAIN domain + GPS, D261-T540, with C-terminal Avi/6x His tag (human).
T3 construct: also called Human EMR2 GAIN domain protein
T3 chain: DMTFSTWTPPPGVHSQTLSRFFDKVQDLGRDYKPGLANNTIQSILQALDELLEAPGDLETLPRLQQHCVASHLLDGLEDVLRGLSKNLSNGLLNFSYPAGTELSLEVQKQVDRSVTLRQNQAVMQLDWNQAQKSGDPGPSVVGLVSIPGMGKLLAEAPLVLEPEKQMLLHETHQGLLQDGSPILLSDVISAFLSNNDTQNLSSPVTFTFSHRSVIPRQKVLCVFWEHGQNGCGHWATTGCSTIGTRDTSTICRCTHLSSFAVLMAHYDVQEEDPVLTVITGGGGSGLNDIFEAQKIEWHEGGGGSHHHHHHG
Put plainly: SPR, row 'SPR (KD) / EMR2' of the Forced Degradation table; stress condition of the KD and EMR2 construct not named on the sheet. A general note: SPR reads the build-up and loss of mass on a sensor chip optically.

T1 sequence (A0A075B6N1 22-114): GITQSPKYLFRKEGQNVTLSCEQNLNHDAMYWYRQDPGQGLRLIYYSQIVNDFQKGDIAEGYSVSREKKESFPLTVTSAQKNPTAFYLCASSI

B1: EMVBB27 (bispecific antibody, human IgG1, kappa, L234A L235A)
heavy chain 1 (Vb17 arm, B17B21-LC-N33S Fab): QVQLQESGPGLVKPSETLSLTCTVSGYSITSGYFWNWIRQPPGKGLEWIGYISYDGSNNYNPSLKSRVTISRDTSKNQFSLKLSSVTAADTAVYYCASPSPGTGYAVDYWGQGTLVTVSSASTKGPSVFPLAPSSKSTSGGTAALGCLVKDYFPEPVTVSWNSGALTSGVHTFPAVLQSSGLYSLSSVVTVPSSSLGTQTYICNVNHKPSNTKVDKKVEPKSCDKTHTCPPCPAPEAAGGPSVFLFPPKPKDTLMISRTPEVTCVVVSVSHEDPEVKFNWYVDGVEVHNAKTKPREEQYNSTYRVVSVLTVLHQDWLNGKEYKCKVSNKALPAPIEKTISKAKGQPREPQVYTLPPSREEMTKNQVSLWCLVKGFYPSDIAVEWESNGQPENNYKTTPPVLDSDGSFFLYSKLTVDKSRWQQGNVFSCSVMHEALHNRFTQKSLSLSPGK
light chain 1 (Vb17 arm, B17B21-LC-N33S Fab): DIQMTQSPSSLSASVGDRVTITCRSSQSLVHSSGNTYLHWYQQKPGKAPKFLIYKVSNRFSGVPSRFSGSGSGTDFTLTISSLQPEDFATYYCSQSTHVPFTFGQGTKLEIKRTVAAPSVFIFPPSDEQLKSGTASVVCLLNNFYPREAKVQWKVDNALQSGNSQESVTEQDSKDSTYSLSSTLTLSKADYEKHKVYACEVTHQGLSSPVTKSFNRGEC
heavy chain 2 (EMR2 arm, EMR2B57-LH-spFv fused to Fc): QSALTQPASVSGSPGQSITISCTGTSSDVGGYNYVSWYQQHPGCAPKLMIYEVSYRPSGVSNRFSGSKSGNTASLTISGLQAEDEADYYCSSYTSSSTYVVFGGGTKLTVLGGGSGGSGGCPPCGGSGGEVQLVESGGGLVQPGGSLRLSCAASGFTFRSYWMHWVRQAPGKGLVWVSRISSGGSTTNYADSVKGRFTISRDNAKNTLYLQMNSLRAEDTAIYYCARGDNYYDSPYFDYWGCGTLVTVSSEPKSSDKTHTCPPCPAPEAAGGPSVFLFPPKPKDTLMISRTPEVTCVVVSVSHEDPEVKFNWYVDGVEVHNAKTKPREEQYNSTYRVVSVLTVLHQDWLNGKEYKCKVSNKALPAPIEKTISKAKGQPREPQVYTLPPSREEMTKNQVSLSCAVKGFYPSDIAVEWESNGQPENNYKTTPPVLDSDGSFFLVSKLTVDKSRWQQGNVFSCSVMHEALHNHYTQKSLSLSPGK
notes: also called EMVBB27.003; TPP000263194
Consider B1, for which, in assay [1], the EC50 turned out to be 8.03 nM and the “Max % TRV19+” value turned out to be 6.62%. For the same molecule, in assay [2], a half-maximal effect (EC50) was put at 296 nM and the “Max (MFI)” value amounted to 250000 MFI. For the same molecule, in assay [3], the half-maximal effective concentration (EC50) is 301 nM and the “Max (MFI)” value was 420000 MFI.

B2: EMVBB6 (bispecific antibody, human IgG1, lambda, L234A L235A)
heavy chain 1 (Vb17 arm, B17B852-G34R-LH-spFv fused to Fc): DIQMTQSPSSLSASVGDRVTITCRSSQSLVHSNRNTYLHWYQQKPGCAPKLLIYKVSNRFSGVPSRFSGSGSGTDFTLTISSLQPEDFATYYCSQSTHVPFTFGQGTKLEIKGGGSGGSGGCPPCGGSGGQVQLQESGPGLVKPSETLSLTCTVSGYSITSGYFWNWIRQFPGKGLEWMGYISYDGSNNYNPSLKSRITISRDTSKNQFSLKLSSVTAADTAVYYCASPSPGTGYAVDYWGCGTTVTVSSEPKSSDKTHTCPPCPAPEAAGGPSVFLFPPKPKDTLMISRTPEVTCVVVSVSHEDPEVKFNWYVDGVEVHNAKTKPREEQYNSTYRVVSVLTVLHQDWLNGKEYKCKVSNKALPAPIEKTISKAKGQPREPQVYTLPPSREEMTKNQVSLWCLVKGFYPSDIAVEWESNGQPENNYKTTPPVLDSDGSFFLYSKLTVDKSRWQQGNVFSCSVMHEALHNHYTQKSLSLSPGK
heavy chain 2 (EMR2 arm, EMR2B361 Fab): EVQLVQSGGGLVKPGGSLRLSCVASGFIFRSYSMNWVRQAPGKGLEWVSSISSSSSYIYYADSVKGRFTISRDNAKNSLYLQMDSLRAEDTAVYYCARREYGGPFDYWGQGTLVTVSSASTKGPSVFPLAPSSKSTSGGTAALGCLVKDYFPEPVTVSWNSGALTSGVHTFPAVLQSSGLYSLSSVVTVPSSSLGTQTYICNVNHKPSNTKVDKKVEPKSCDKTHTCPPCPAPEAAGGPSVFLFPPKPKDTLMISRTPEVTCVVVSVSHEDPEVKFNWYVDGVEVHNAKTKPREEQYNSTYRVVSVLTVLHQDWLNGKEYKCKVSNKALPAPIEKTISKAKGQPREPQVYTLPPSREEMTKNQVSLSCAVKGFYPSDIAVEWESNGQPENNYKTTPPVLDSDGSFFLVSKLTVDKSRWQQGNVFSCSVMHEALHNRFTQKSLSLSPGK
light chain 2 (EMR2 arm, EMR2B361 Fab): QSVLTQPPSVFAAPGEKVTISCSGSSSNIGNDYVSWYQQLPGTAPKLLIYDNNKRPSGIPDRFSGSKSGTSATLGITGLQTGDEADYYCGTWDSSLSAGYVFGTGTKVTVLGQPKAAPSVTLFPPSSEELQANKATLVCLISDFYPGAVTVAWKADSSPVKAGVETTTPSKQSNNKYAASSYLSLTPEQWKSHRSYSCQVTHEGSTVEKTVAPTECS
notes: also called TPP000258023
On to B2, for which, in assay [4], the Kd was 0.186 nM. Besides, in assay [1], the response was half-maximal at 14.5 nM (EC50) and the “Max % TRV19+” value stood at 9.15%. Besides, in assay [2], the EC50 was 15.2 nM and the “Max (MFI)” value stood at 250000 MFI. Further, in assay [3], a half-maximal response (EC50) required 12.6 nM and the “Max (MFI)” value was 330000 MFI.

B3: EMVBB7 (bispecific antibody, human IgG1, lambda, L234A L235A)
heavy chain 1 (Vb17 arm, B17B852-G34R-LH-spFv fused to Fc): DIQMTQSPSSLSASVGDRVTITCRSSQSLVHSNRNTYLHWYQQKPGCAPKLLIYKVSNRFSGVPSRFSGSGSGTDFTLTISSLQPEDFATYYCSQSTHVPFTFGQGTKLEIKGGGSGGSGGCPPCGGSGGQVQLQESGPGLVKPSETLSLTCTVSGYSITSGYFWNWIRQFPGKGLEWMGYISYDGSNNYNPSLKSRITISRDTSKNQFSLKLSSVTAADTAVYYCASPSPGTGYAVDYWGCGTTVTVSSEPKSSDKTHTCPPCPAPEAAGGPSVFLFPPKPKDTLMISRTPEVTCVVVSVSHEDPEVKFNWYVDGVEVHNAKTKPREEQYNSTYRVVSVLTVLHQDWLNGKEYKCKVSNKALPAPIEKTISKAKGQPREPQVYTLPPSREEMTKNQVSLWCLVKGFYPSDIAVEWESNGQPENNYKTTPPVLDSDGSFFLYSKLTVDKSRWQQGNVFSCSVMHEALHNHYTQKSLSLSPGK
heavy chain 2 (EMR2 arm, EMR2B410 Fab): EVQLVESGGGLVQPGGSLRLSCAASGFTFSSYWMHWVRQVPGKGLVWVSRISSHGSSTSYADSVKGRFTISRDNAKNALYLQMNSLRAEDTAVYYCARGGNYYDSPYFDYWGQGTLVTVSSASTKGPSVFPLAPSSKSTSGGTAALGCLVKDYFPEPVTVSWNSGALTSGVHTFPAVLQSSGLYSLSSVVTVPSSSLGTQTYICNVNHKPSNTKVDKKVEPKSCDKTHTCPPCPAPEAAGGPSVFLFPPKPKDTLMISRTPEVTCVVVSVSHEDPEVKFNWYVDGVEVHNAKTKPREEQYNSTYRVVSVLTVLHQDWLNGKEYKCKVSNKALPAPIEKTISKAKGQPREPQVYTLPPSREEMTKNQVSLSCAVKGFYPSDIAVEWESNGQPENNYKTTPPVLDSDGSFFLVSKLTVDKSRWQQGNVFSCSVMHEALHNRFTQKSLSLSPGK
light chain 2 (EMR2 arm, EMR2B410 Fab): QSALTQPASVSGSPGQSITISCTGTSSDVGGYNYVSWYQQHPGKAPKLMIYEVSYRPSGISNRFSGSKSGDTASLTISGLQAEDEADYYCSSYTSSSTYVVFGGGTKVTVLGQPKAAPSVTLFPPSSEELQANKATLVCLISDFYPGAVTVAWKADSSPVKAGVETTTPSKQSNNKYAASSYLSLTPEQWKSHRSYSCQVTHEGSTVEKTVAPTECS
notes: also called TPP000258024
With B3, the Kd in assay [4] was 1.47 nM.

(Values after patent US20250361317A1 (Janssen / Centocor, published 2025).)
